Substitutions are numbered along the chain they refer to. Names and notes keep the numbering of the source.
B1: Y151D: single-substitution thermolysin variant (SEQ ID NO:3 numbering) (protein, listed as Geobacillus caldoproteolyticus)
chain: ITGTSTVGVGRGVLGDQKNINTTYSTYYYLQDNTRGNGIFTYDAKYRTTLPGSLWADADNQFFASYDAPAVDAHYYAGVTYDYYKNVHNRLSYDGNNAAIRSSVHYSQGYNNAFWNGSQMVYGDGDGQTFIPLSGGIDVVAHELTHAVTDDTAGLIYQNESGAINEAISDIFGTLVEFYANKNPDWEIGEDVYTPGISGDSLRSMSDPAKYGDPDHYSKRYTGTQDNGGVHINSGIINKAAYLISQGGTHYGVSVVGIGRDKLGKIFYRALTQYLTPTSNFSQLRAAAVQSATDLYGSTSQEVASVKQAFDAVGVK
B2: Y151E: single-substitution thermolysin variant (SEQ ID NO:3 numbering) (protein, listed as Geobacillus caldoproteolyticus)
chain: B1 chain with D151E
B3: Y151H: single-substitution thermolysin variant (SEQ ID NO:3 numbering) (protein, listed as Geobacillus caldoproteolyticus)
chain: B1 chain with D151H
B4: Y151M: single-substitution thermolysin variant (SEQ ID NO:3 numbering) (protein, listed as Geobacillus caldoproteolyticus)
chain: B1 chain with D151M
B5: Y151Q: single-substitution thermolysin variant (SEQ ID NO:3 numbering) (protein, listed as Geobacillus caldoproteolyticus)
chain: B1 chain with D151Q
B6: Y151R: single-substitution thermolysin variant (SEQ ID NO:3 numbering) (protein, listed as Geobacillus caldoproteolyticus)
chain: B1 chain with D151R
B7: Y151V: single-substitution thermolysin variant (SEQ ID NO:3 numbering) (protein, listed as Geobacillus caldoproteolyticus)
chain: B1 chain with D151V
B8: Y151W: single-substitution thermolysin variant (SEQ ID NO:3 numbering) (protein, listed as Geobacillus caldoproteolyticus)
chain: B1 chain with D151W
B9: I156M: single-substitution thermolysin variant (SEQ ID NO:3 numbering) (protein, listed as Geobacillus caldoproteolyticus)
chain: B1 chain with D151Y, I156M
B10: T049I: single-substitution thermolysin variant (SEQ ID NO:3 numbering) (protein, listed as Geobacillus caldoproteolyticus)
chain: B1 chain with T49I, D151Y
B11: I156R: single-substitution thermolysin variant (SEQ ID NO:3 numbering) (protein, listed as Geobacillus caldoproteolyticus)
chain: B1 chain with D151Y, I156R
B12: I156T: single-substitution thermolysin variant (SEQ ID NO:3 numbering) (protein, listed as Geobacillus caldoproteolyticus)
chain: B1 chain with D151Y, I156T
B13: T049L: single-substitution thermolysin variant (SEQ ID NO:3 numbering) (protein, listed as Geobacillus caldoproteolyticus)
chain: B1 chain with T49L, D151Y
B14: I156W: single-substitution thermolysin variant (SEQ ID NO:3 numbering) (protein, listed as Geobacillus caldoproteolyticus)
chain: B1 chain with D151Y, I156W
B15: Q273Y: single-substitution thermolysin variant (SEQ ID NO:3 numbering) (protein, listed as Geobacillus caldoproteolyticus)
chain: B1 chain with D151Y, Q273Y

Assay: not given
Conditions: TIDE 2X 0.78 g/l, 6 gpg, pH 8.2, 30 min at 20°C, A405; variant vs wild-type thermolysin at same protein concentration
Method: Thermolysin containing protease samples were obtained from filtered broth of cultures grown in microtiter plates for 3 days at 37° C. with shaking at 280 rpm under humidified aeration.
• Thermolysin containing culture supernatants (˜100-200 μg protein per ml) • TIDE® 2× (nil enzymes) detergent (P&G) • Dilution Buffer (10 mM NaCl, 0.1 mM CaCl2, 0.005% TWEEN®-80) The equipment used was a Biomek FX Robot (Beckman Coulter), a SpectraMAX MTP Reader (type 340; Molecular Devices), and an iEMS incubator/shaker (Thermo/Labsystems). MTPs were obtained from Costar (type 9017). TIDE® 2× Liquid Detergent Preparation (US Conditions):
Milli-Q water was adjusted to 6 gpg water hardness using a (Ca/Mg 3:1) hardness stock solution (282.3 g/L CaCl2.2H20, 130.1 g/L MgCl2.6H2O), 0.78 g/1 detergent TIDE® 2× was added, and the detergent solution was stirred vigorously for at least 15 minutes. Then, 5 mM HEPES was added and the pH adjusted to 8.2.
Microswatches of ¼ inch circular diameter were obtained from CFT (Vlaardingen, The Netherlands).
Two microswatches were placed vertically into each well of a 96-well microtiter plate to expose the whole surface area (i.e., not flat on the bottom of the well).
The incubator was set to 20° C. The filtered culture broth samples were tested at an appropriate concentration by dilution with a mixture of 10 mM NaCl, 0.1 mM CaCl2, 0.005% TWEEN®-80 solution. The detergent solution was prepared as described above. Then, 190 μl of detergent solution were added to each well of the MTP, containing microswatches. To this mixture, 10 μl of diluted enzyme solution were added to each well (to provide a total volume of 200 μl/well). The MTP was covered with a plate seal and placed in an incubator for 30 minutes at 20° C., with agitation at 1400 rpm (iEMS incubator). Following incubation under the appropriate conditions, 100 μl of solution from each well was removed and placed into a new MTP. Subsequently this MTP, containing 100 μl of solution/well, was read at 405 nm in a MTP-Reader. Blank controls, containing 2 microswatches/well and detergent, without the addition of thermolysin containing samples, were also included in the test.
The observed absorbance value was corrected for the blank value (obtained after incubation of microswatches in the absence of added enzyme). The resulting absorbance was a measure for the hydrolytic activity. For each sample (thermolysin or a variant) the performance index (PI) was calculated. The performance index is a comparison of the performance of the variant (actual value) and the standard thermolysin enzyme (theoretical value) at the same protein concentration. In addition, the theoretical values were calculated, using the parameters of the Langmuir equation of the standard enzyme.
C. Stability Assay in the Presence of Detergent
In this example, experiments were conducted to determine the stain removal performance of various singly substituted thermolysin (also referred to herein as Proteinase-T or PrT) variants. As described in Example 1, the stain cleaning performance of thermolysin variants was done utilizing a blood/milk/ink (BMI) microswatch assay. Briefly the cleaning performance of chosen single-substitution thermolysin variants was assessed in a TIDE® 2× microswatch assay.
For B1, the “PI (performance index), stain removal” value was 1.08. With B2 the “PI (performance index), stain removal” value was 1.11. For B3, the “PI (performance index), stain removal” value was 1.17. With B4 the “PI (performance index), stain removal” value was 1.06. In the case of B5, the “PI (performance index), stain removal” value is reported as 1.29. In the case of B6, the “PI (performance index), stain removal” value is reported as 1.75. With B7 the “PI (performance index), stain removal” value was 1.25. In the case of B8, the “PI (performance index), stain removal” value is reported as 1.22. For B9, the “PI (performance index), stain removal” value was 1.11. In the case of B10, the “PI (performance index), stain removal” value is reported as 1.24. In the case of B11, the “PI (performance index), stain removal” value is reported as 1.22. In the case of B12, the “PI (performance index), stain removal” value is reported as 1.03. With B13 the “PI (performance index), stain removal” value was 1.25. With B14 the “PI (performance index), stain removal” value was 1.16. In the case of B15, the “PI (performance index), stain removal” value is reported as 1.09.

Assay: Stability assay in 25% TIDE 2X detergent with DTPA (residual Abz-AGLA-Nba protease activity)
Format: physicochemical
Conditions: 60 min at 32°C; variant residual AGLA activity divided by wild-type residual activity
Method: The stability of thermolysin and variants thereof was measured after incubation under defined conditions in the presence of 25% TIDE® 2× detergent. The initial and residual activity was determined.
MTPs were obtained from Costar (type 9017) and from Greiner (black plate, type 655076). Test Method Unstressed Conditions:
First, 20 μl thermolysin containing culture supernatant was diluted with 180 μl MES assay buffer. Then, 20 μl diluted supernatant was diluted further with 180 μl MES assay buffer. Subsequently 10 μl of this dilution was transferred into 190 μl AGLA-substrate solution in a pre-warmed plate (Greiner 655076) at 25° C. Any air bubbles present were blown away and the plate was measured according to the AGLA protease assay protocol described below.
First, 20 μl of culture supernatant was diluted with 180 μl 27.5% TIDE®+detergent solution and placed in the iEMS shaker. The plate covered with a plate seal was incubated for a total of 60 minutes at 32° C. at 900 rpm. In addition, 20 μl of culture supernatant was diluted with 180 μl 27.5% TIDE®−solution and placed in the iEMS shaker. This plate covered with a plate seal was incubated for a total of 180 minutes at 50° C. at 900 rpm.
Subsequently after the respective incubations, 20 μl of either of these solutions were diluted with 180 μl MES assay buffer and 10 μl of this dilution were diluted with 190 μl AGLA-substrate solution in a pre-warmed plate (Greiner 655076) at 25° C.
Fluorescence measurements were taken at excitation of 350 nm and emission of 420 nm. The spectrofluorometer software calculated the reaction rates (=slope) of the increase in fluorescence for each well to a linearly regressed line of (milli-) RFU/min. The ratio of the residual and initial AGLA activity was used to express the 25% TIDE® 2× stability as follows: Percentage of residual activity=[slope of stressed]*100/[slope of unstressed]
For each sample (thermolysin and variants thereof) the performance index was calculated by dividing the residual activity of the variant by the residual activity of thermolysin. The performance index compared the stability of the variant and the standard thermolysin enzyme (e.g., wild type or parental enzyme), determined under the same conditions.
In these experiments, the liberation of Abz-AG by protease cleavage of Abz-AGLA-Nba was monitored by fluorescence spectrometry (Ex. 350/Em. 420). The rate of appearance of Abz-AG was a measure of proteolytic activity.
The Abz-AGLA-Nba assay solution was prepared by adding 1 ml of the Abz-AGLA-Nba stock to 19 ml MES substrate buffer and mixed well for at least 2 minutes. Subsequently the thermolysin or variants thereof containing culture supernatants were diluted with MES assay buffer to a concentration of 1-6 μg protein per ml.
The assay was performed by adding 10 μl of diluted protease solution to each well, followed by the addition of 190 μl Abz-AGLA-Nba assay solution that was pre-equilibrated for at least 15 minutes at 25° C. The solutions were vigorously mixed, and the liberation of Abz-AG by protease cleavage of Abz-AGLA-Nba was monitored by fluorescence spectrometry at 25° C. in kinetic mode with excitation set at 350 nm and emission set at 420 nm. The rate of appearance of Abz-AG was a measure of proteolytic activity in the samples. The protease activity was expressed as RFU (relative fluorescence units·min^−1).
As described in Example 1, the stability of thermolysin variants was measured by determining the AGLA activity before and after incubation in the presence of TIDE® 2× heavy duty liquid (HDL) detergent at an elevated temperature. The tables contain the relative stability values compared to wild-type thermolysin, which is the quotient of the variant residual activity divided by the wild-type residual activity. A value greater than one indicates higher stability in the presence of detergent. […]
In the case of B1, the “PI (relative stability), 25% TIDE 2X with DTPA” value is reported as 1.12. For B2, the “PI (relative stability), 25% TIDE 2X with DTPA” value was 1.10. For B3, the “PI (relative stability), 25% TIDE 2X with DTPA” value was 1.11. With B4 the “PI (relative stability), 25% TIDE 2X with DTPA” value was 1.09. For B5, the “PI (relative stability), 25% TIDE 2X with DTPA” value was 1.03. For B6, the “PI (relative stability), 25% TIDE 2X with DTPA” value was 1.26. For B7, the “PI (relative stability), 25% TIDE 2X with DTPA” value was 1.11. In the case of B8, the “PI (relative stability), 25% TIDE 2X with DTPA” value is reported as 1.02. For B9, the “PI (relative stability), 25% TIDE 2X with DTPA” value was 1.19. With B10 the “PI (relative stability), 25% TIDE 2X with DTPA” value was 1.01. In the case of B11, the “PI (relative stability), 25% TIDE 2X with DTPA” value is reported as 1.15. For B12, the “PI (relative stability), 25% TIDE 2X with DTPA” value was 1.08. With B13 the “PI (relative stability), 25% TIDE 2X with DTPA” value was 1.02. In the case of B14, the “PI (relative stability), 25% TIDE 2X with DTPA” value is reported as 1.12. In the case of B15, the “PI (relative stability), 25% TIDE 2X with DTPA” value is reported as 1.05.
